# Laboratory results: patent US11560546B2, “Methods for neural conversion of human embryonic stem cells” (MEMORIAL SLOAN KETTERING CANCER CENTER, priority 2009, dated 2023)
# Entries after “also recorded” stand apart in the source; their conditions may differ.
# B1: FGF8: caudalizing factor (R&D 50 ng/ml) (protein, UniProt P55075 23-233, looked up)
# Fibroblast growth factor 8: QEGPGRGPALGRELASLFRAGREPQGVSQQHVREQSLVTDQLSRRLIRTYQLYSRTSGKHVQVLANKRINAMAEDGDPFAKLIVETDTFGSRVRVRGAETGLYICMNKKGKLIAKSNGKGKDCVFTEIVLENNYTALQNAKYEGWYMAFTRKGRPRKGSKTRQHQREVHFMKRLPRGHHTTEQSLRFEFLNYPPFTRSLRGSQRTWAPEPR
# B2: Wnt-1: caudalizing factor (Peprotech 50 ng/ml) (protein, UniProt P04628 28-370, looked up)
# Proto-oncogene Wnt-1: ANSSGRWWGIVNVASSTNLLTDSKSLQLVLEPSLQLLSRKQRRLIRQNPGILHSVSGGLQSAVRECKWQFRNRRWNCPTAPGPHLFGKIVNRGCRETAFIFAITSAGVTHSVARSCSEGSIESCTCDYRRRGPGGPDWHWGGCSDNIDFGRLFGREFVDSGEKGRDLRFLMNLHNNEAGRTTVFSEMRQECKCHGMSGSCTVRTCWMRLPTLRAVGDVLRDRFDGASRVLYGNRGSNRASRAELLRLEPEDPAHKPPSPHDLVYFEKSPNFCTYSGRLGTAGTAGRACNSSSPALDGCELLCCGRGHRTRTQRVTERCNCTFHWCCHVSCRNCTHTRVLHECL
# B3: Wnt3A: WNT protein added to neural rosette stage cells (protein, UniProt P56704 19-352, looked up)
# Protein Wnt-3a: SYPIWWSLAVGPQYSSLGSQPILCASIPGLVPKQLRFCRNYVEIMPSVAEGIKIGIQECQHQFRGRRWNCTTVHDSLAIFGPVLDKATRESAFVHAIASAGVAFAVTRSCAEGTAAICGCSSRHQGSPGKGWKWGGCSEDIEFGGMVSREFADARENRPDARSAMNRHNNEAGRQAIASHMHLKCKCHGLSGSCEVKTCWWSQPDFRAIGDFLKDKYDSASEMVVEKHRESRGWVETLRPRYTYFKVPTERDLVYYEASPNFCEPNPETGSFGTRDRTCNVSSHGIDGCDLLCCGRGHNARAERRREKCRCVFHWCCYVSCQECTRVYDVHTCK
# Assays:
# Type in all cases: cell-based, human
# [1] = system: rosette-stage neural cells; test: Floor plate induction in stromal-feeder (MS5) derived / rosette-stage neural cells; conditions: added to neural rosette stage cells
# Method: (§1) For MS5 induction, established methods previously reported were used (Perrier et al., 2004). Feeder free neural induction was carried out as previously described (Chambers et al., 2009). Briefly, hESCs cultures were disaggregated using accutase for 20 minutes, washed using hESCs media and pre-plated on gelatin for 1 hour at 37° C. in the presence of ROCK inhibitor to remove MEFs. The nonadherent hESCs were washed and plated on matrigel at a density of 20,000 cells/cm2 on matrigel (BD) coated dishes in MEF conditioned hESCs media (CM) spiked with 10 ng/mL of FGF-2 and ROCK-inhibitor. The ROCK inhibitor was withdrawn, and hESCs were allowed to expand in CM for 3 days or until they were nearly confluent. The initial differentiation media conditions included knock out serum replacement (KSR) media with […] TGF-b inhibitor (SB431542, Tocris) and 500 ng/mL of Noggin (R&D). Upon day 5 of differentiation, increasing amounts of N2 media (25%, 50%, 75%) was added to the KSR media every two days while maintaining 500 ng/mL of Noggin and TGF-b inhibitor. For FP induction, Sonic C25II was added at 200 ng/ml.
# hESC derived neural cells at the rosette stage were differentiated into both CNS and PNS progeny and patterned towards multiple cells fates along the A/P and D/V axis (Elkabetz et al., 2008). […] Specification of progenitor cells into FP tissue and cells during mouse development was thought to depend on SHH signaling within early neural lineages. The inventors tested whether rosette-stage neural cells were competent to undergo FP specification in response to SHH. High concentrations of SHH were needed to induce FP during mouse development (Roelink et al., 1994; Ericson et al., 1996). Recombinant N-terminal SHH has a limited activity range due to the lack of posttranslational modifications required for full SHH action. Recently, a modified version of recombinant SHH became available where SHH was tethered to two Isoleucines (Sonic C25II, R&D Systems), mimicking more closely the potency of mammalian SHH protein.
# The majority of cells retained rosette cytoarchitecture and staining for the AN marker BF1 as described previously (FIG. 1A) (Elkabetz et al., 2008).
# Based on the hypothesis that FP specification in the mouse occurs at early developmental stages, at the time of or prior to neural induction, the inventors repeated SHH induction studies at Day 9, the time of rosette specification, using classic stromal-feeder mediated neural induction protocols (Elkabetz et al., 2008). Under this paradigm the inventors noticed a drastic change in cell morphology restricted to the cells treated with SHH-C25II (FIG. 1B).
# hESCs [2] = test: Floor plate induction in NSB protocol, FOXA2 immunostaining; conditions: added early along FP differentiation; BIO 100 nM
# Method: as §1
# Tissue was fixed using 4% paraformaldehyde and Picric acid for 15 minutes, washed with PBS, permeablized using 0.3% Triton X in PBS, and blocked using 10% Donkey Serum. Primary antibodies used for microscopy included PAX6 (Covance), TUJ1 (Covance), ZO1 (Zymed), BF1 (FOXG1, gift E.Lai), TH (Pelfreez), NKX6.1 (DSHB) and FOXA2 (SantaCruz).
# Using this protocol, in combination with compositions and methods of the present inventions, the inventors aimed to optimize FP differentiation by adding Sonic C25II at different time points during neural induction and assaying for FOXA2 expression. Differentiation was initiated upon NSB exposure, and Sonic C25II was added at Day 1, Day 3, Day 5, or Day 7 (FIG. 2A).
# hESC = test: Real-Time PCR of pluripotency and germ layer markers in treated hESC
# Method: Cells and Culture Conditions (dual SMAD and floor plate). hESCs (WA-09; passages 35-45) were cultured on mouse embryonic fibroblasts plated at 12-15,000 cells/cm2 (MEFs, Global Stem). A medium of DMEM/F12, 20% knockout serum replacement (GIBCO), 0.1 mM b-mercaptoethanol, 6 ng/mL FGF-2 was changed daily. Cells were passaged using 6 U/mL of dispase in hESCs media, washed and re-plated at a dilution of 1:5 to 1:10. Neural Induction (Dual SMAD). hESC cultures were disaggregated using accutase for 20 minutes, washed using hESC media and pre-plated on gelatin for 1 hour at 37° C. in the presence of ROCK inhibitor to remove MEFs. The nonadherent hESC were washed and plated on matrigel at a density of 10,000-25,000 cells/cm^2 on matrigel (BD) coated dishes in MEF conditioned hESC media (CM) spiked with 10 ng/mL of FGF-2 and ROCK-inhibitor. […] The ROCK inhibitor was withdrawn, and hESC were allowed to expand in CM for 3 days or until they were nearly confluent. The initial differentiation media conditions included knock out serum replacement (KSR) media with […] TGF-beta inhibitor (SB431542, Tocris) and 500 ng/mL of Noggin (R&D). Upon day 5 of differentiation, the TGF-b inhibitor was withdrawn and increasing amounts of N2 media (25%, 50%, 75%) was added to the KSR media every two days while maintaining 500 ng/mL of Noggin. For MS5 induction, established methods previously reported were used^18. Quantitative Real-Time (Dual SMAD). Total RNA was extracted using an RNeasy kit (Qiagen). For each sample, 1 ug of total RNA was treated for DNA contamination and reverse transcribed using the Quantitect RT kit (Qiagen). Amplified material was detected using Quantitect SYBR green probes and PCR kit (Qiagen) on a Mastercycler RealPlex2 (Eppendorf). Results were normalized to a HPRT control and are from 4-6 technical replicates of 2-3 independent biological samples at each data point. Neuronal Patterning and Differentiation (Dual SMAD). Dopaminergic patterning was initiated using BDNF, ascorbic acid, sonic hedgehog, and FGF8 in N2 media as previously reported^18, and maturation was performed in the presence of BDNF, ascorbic acid, GDNF, TGFb-1, and cyclic-AMP. Motor neuron patterning was performed using BDNF, ascorbic acid, sonic hedgehog, and retinoic acid in N2 media as previously reported^16. Microscopy, Antibodies, and Flow Cytometry (Dual SMAD). Tissue was fixed using 4% paraformaldehyde for 20 minutes, washed with PBS, permeablized using 0.5% Triton X in PBS, and blocked using 1% BSA in PBS. Primary antibodies used for microscopy included PAX6 (Covance), Oct4 (Biovision), AP2 (Novus Biologicals), GBX2 (Sigma), HNK1 (Sigma), HOXB4 (Developmental Studies Hybridoma Bank (DSHB)), Nestin (R&D), NKX6.1 (DSHB), OTX2 (gift), p75 (Advanced Target Systems.), PAX7 (DSHB), PLZF (Calbiochem), TUJ1 (Covance), ZO1 (Zymed), BF1 (FOXG1, gift Esseng Lai), TH (Sigma), HB9 (DSHB), ISL1 (DSHB). CD105-PE (eBioscience) was used for excluding MS5 stromal cells for flow cytometery on a FACS can (BD). Floor Plate: Neural Induction.
# hESCs [3] = test: qRT-PCR of FP, AN and regional markers during FP induction
# Method: as §1
# Total RNA was extracted using an RNeasy kit (Qiagen). For each sample, 1 ug of total RNA was treated for DNA contamination and reverse transcribed using the Superscript III (Invitrogen). Amplified material was detected using Taqman probes and PCR mix (ABI) on a Mastercycler RealPlex2 (Eppendorf). All results were normalized to a HPRT control and are from 3 technical replicates of 3 independent biological samples at each data point.
# FOXA2 is a key marker of FP development. However, FOXA2 is also highly expressed in the endoderm. To further characterize the hESC derived putative FP tissue, the inventors performed qRT-PCR analyses for candidate markers at Day 11. […] The inventors further characterized the nature of FOXA2+ putative FP cells using a panel of neural precursor, glial, neuronal and non-neural markers (FIG. 7). […] To distinguish FOXA2 expression in hESC derived FP versus endoderm tissue, the inventors differentiated hESCs to endoderm (D'Amour et al., 2005).
# To gain further insight into the factors critical for human FP specification, high resolution temporal gene expression profiles of candidate markers were performed at 6 time points during the 11 day protocol.
# The inventors contemplated the use of SIX6 as a putative marker of anterior FP identity. Thus SIX6 status of the hESC derived FP was used to mark respecification in response to known caudalizing agents such as FGF8, Wnt-1, and Retinoic Acid. Each of these caudalizing factors was added in combination with SHH and the resulting tissue was assessed for expression of the FP markers FOXA2 and NETRIN-1, the AN marker BF1, and putative anterior FP marker SIX6.
# hESCs derived FP = test: SHH enhancer (SBE1/SBE2) LacZ constructs in hESC derived FP
# From the text: As mentioned above, studies had identified different enhancers that directed SHH expression to different A/P region along ventral axis (Jeong et al., 2008). […] In the absence of caudalizing factors (SHH C25II alone), LacZ expression was observed herein following transfection with the SBE2 but not the SBE1 enhancer supporting the hypothesis that hESC derived FP is anterior by default (FIG. 6C). In contrast SBE2 activity was abolished upon treatment with Wnt1 or FGF8 while SBE1 activity was induced under these conditions.
# [4] = caudalizing factor added in combination with SHH
Molecule,FP competency of neural rosette stage cells [1],CDX2 expression (hESC),SIX6 expression (hESCs [3]; [4]),SBE1 enhancer activity (LacZ) (hESCs derived FP),SBE2 enhancer activity (LacZ) (hESCs derived FP),other results
"O=C1Nc2cc(Br)ccc2/C1=C1/Nc2ccccc2/C1=N\O [BIO, reference compound]",not sufficient to induced FP competency,,,,,FOXA2 expression (hESCs [2]): can increase FOXA2 expression
"NC(=O)c1ccc(-c2nc(-c3ccc4c(c3)OCO4)c(-c3ccccn3)[nH]2)cc1 [SB431542, 4-[4-(1,3-benzodioxol-5-yl)-5-(2-pyridinyl)-1H-imidazol-2-yl]-benzamide]",,dramatic increase,,,,Brachyury expression (mesodermal lineage) (hESC): suppression of Brachyury; Nanog expression (hESC; hESC in KSR): rapid loss of Nanog expression; also recorded: most dramatic downregulation
Noggin,,Suppression of CDX2,,,,SOX17 expression (endodermal lineage) (hESC): suppression of SOX17
B1,,,significant reduction in SIX6 expression,induced,abolished,
B2,not sufficient to induced FP competency,,significant reduction in SIX6 expression,induced,abolished,"FP production based on FOXA2 and Netrin-1 expression (hESCs [3]; added in combination with SHH): significantly potentiated FP production; BF1 expression (hESCs [3]; [4]): dramatic reduction in BF1 expression; midbrain FP markers CORIN and NOV and DA progenitor markers LMX1B, EN1, NGN2 (hESCs [3]; qPCR): significant increase"
B3,not sufficient to induced FP competency,,,,,
